Data published in article PMC11934925.

Assays:
FLI1 F362A 259-399 [1] = biological target: T1, FLI1 F362A 259-399 (UniProt Q01543 259-399, F362A); assay: fluorescence anisotropy
T1 sequence: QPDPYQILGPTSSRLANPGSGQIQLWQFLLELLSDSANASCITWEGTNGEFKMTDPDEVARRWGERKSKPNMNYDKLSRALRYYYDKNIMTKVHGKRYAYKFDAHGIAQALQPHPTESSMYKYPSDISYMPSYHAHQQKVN

FLI1 F362A 259-375 [2] = biological target: T2, FLI1 F362A 259-375 (UniProt Q01543 259-375, F362A); assay: fluorescence anisotropy
T2 sequence: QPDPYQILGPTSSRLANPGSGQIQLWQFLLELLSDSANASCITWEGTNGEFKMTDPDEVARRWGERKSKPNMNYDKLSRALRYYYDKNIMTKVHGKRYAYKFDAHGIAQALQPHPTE

FLI1 F362A 259-371 [3] = biological target: T3, FLI1 F362A 259-371 (UniProt Q01543 259-371, F362A); assay: fluorescence anisotropy
T3 sequence: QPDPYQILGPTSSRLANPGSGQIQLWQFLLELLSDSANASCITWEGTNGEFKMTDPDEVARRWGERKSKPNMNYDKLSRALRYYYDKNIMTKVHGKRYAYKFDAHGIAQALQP

FLI1 F362A 276-399 [4] = biological target: T4, FLI1 F362A 276-399 (UniProt Q01543 276-399, F362A); assay: fluorescence anisotropy
T4 sequence: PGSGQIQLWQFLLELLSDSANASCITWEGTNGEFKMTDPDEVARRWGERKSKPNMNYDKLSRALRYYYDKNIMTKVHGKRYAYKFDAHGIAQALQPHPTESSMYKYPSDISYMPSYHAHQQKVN

FLI1 F362A 276-375 [5] = biological target: T5, FLI1 F362A 276-375 (UniProt Q01543 276-375, F362A); assay: fluorescence anisotropy
T5 sequence: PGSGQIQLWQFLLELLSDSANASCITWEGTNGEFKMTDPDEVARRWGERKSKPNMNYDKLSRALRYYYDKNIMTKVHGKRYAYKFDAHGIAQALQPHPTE

FLI1 276-375 N329E/D333G [6] = biological target: T6, FLI1 276-375 N329E/D333G (UniProt Q01543 276-375, N329E;D333G;F362A); assay: fluorescence anisotropy
T6 sequence: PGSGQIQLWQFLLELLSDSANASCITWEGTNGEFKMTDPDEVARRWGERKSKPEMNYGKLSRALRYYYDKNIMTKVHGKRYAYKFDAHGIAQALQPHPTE

FLI1 276-375 N329E [7] = biological target: T7, FLI1 276-375 N329E (UniProt Q01543 276-375, N329E;F362A); assay: fluorescence anisotropy
T7 sequence: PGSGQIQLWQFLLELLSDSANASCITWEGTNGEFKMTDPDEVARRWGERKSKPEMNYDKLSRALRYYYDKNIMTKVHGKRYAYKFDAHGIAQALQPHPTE

FLI1 276-375 D333G = biological target: T8, FLI1 276-375 D333G (UniProt Q01543 276-375, D333G;F362A); assay: fluorescence anisotropy
T8 sequence: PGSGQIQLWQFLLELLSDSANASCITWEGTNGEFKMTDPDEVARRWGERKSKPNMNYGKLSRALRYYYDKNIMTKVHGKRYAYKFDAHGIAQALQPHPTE

FLI1 F362A 259-399 [8] = biological target: T1, FLI1 F362A 259-399; assay: X-ray crystallography
FLI1 DBD 259-399 WT = biological target: T9, FLI1 DBD 259-399 WT (UniProt Q01543 259-399); assay: X-ray crystallography
T9 sequence: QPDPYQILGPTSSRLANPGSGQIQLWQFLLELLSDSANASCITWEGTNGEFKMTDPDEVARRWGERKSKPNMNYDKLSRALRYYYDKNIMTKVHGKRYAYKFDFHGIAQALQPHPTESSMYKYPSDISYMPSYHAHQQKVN

FLI1 F362A 259-399 [9] = biological target: T1, FLI1 F362A 259-399; assay: X-ray crystallography; remark: listed apart in the source
FLI1 276-371 [10] = biological target: T10, FLI1 276-371 (UniProt Q01543 276-371); assay: fluorescence anisotropy
T10 sequence: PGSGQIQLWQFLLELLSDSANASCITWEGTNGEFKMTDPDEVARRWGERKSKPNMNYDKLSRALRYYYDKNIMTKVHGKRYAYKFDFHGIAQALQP

FLI1 F362A 259-375 [11] = biological target: T2, FLI1 F362A 259-375; assay: fluorescence anisotropy; remark: listed apart in the source
FLI1 276-375 N329E/D333G [12] = biological target: T6, FLI1 276-375 N329E/D333G; assay: fluorescence anisotropy; remark: listed apart in the source
FLI1 F362A 259-371 [13] = biological target: T3, FLI1 F362A 259-371; assay: fluorescence anisotropy; remark: listed apart in the source
FLI1 F362A 276-399 [14] = biological target: T4, FLI1 F362A 276-399; assay: fluorescence anisotropy; remark: listed apart in the source
FLI1 276-375 N329E [15] = biological target: T7, FLI1 276-375 N329E; assay: fluorescence anisotropy; remark: listed apart in the source
FLI1 F362A 276-375 [16] = biological target: T5, FLI1 F362A 276-375; assay: fluorescence anisotropy; remark: listed apart in the source
FLI1 F362A 259-375 [17] = biological target: T2, FLI1 F362A 259-375; assay: X-ray crystallography
FLI1 276-371 [18] = biological target: T10, FLI1 276-371; assay: EMSA
FLI1 F362A 276-375 [19] = biological target: T5, FLI1 F362A 276-375; assay: EMSA
FLI1 F362A 259-399 [20] = biological target: T1, FLI1 F362A 259-399; assay: EMSA
FLI1 F362A 276-399 [21] = biological target: T4, FLI1 F362A 276-399; assay: EMSA

B1: 2site_weak-weak (w-w) (dsDNA)
DNA 1: CAGAAAGGAAGGAAGTG
DNA 2: CACTTCCTTCCTTTCTG
For B1, the binding signal (FLI1 F362A 259-399 [1]) was 41 ± 21 cooperativity factor w, the binding signal (FLI1 F362A 259-375 [2]) was 103 ± 26 cooperativity factor w and the binding signal (FLI1 F362A 259-371 [3]) was 22 ± 7 cooperativity factor w. For the same binder, the binding signal (FLI1 F362A 276-399 [4]) was 16 ± 10 cooperativity factor w, the binding signal (FLI1 F362A 276-375 [5]) was 33 ± 20 cooperativity factor w and the binding signal (FLI1 276-375 N329E/D333G [6]) was about 1 cooperativity factor w. The binding signal (FLI1 276-375 N329E [7]) was 6 ± 6 cooperativity factor w and the binding signal (FLI1 276-375 D333G) was about 1 cooperativity factor w.

B2: 4sites (dsDNA)
DNA 1: GACCGGAAGGAAGGAAGGAAGTGCG
DNA 2: CGCACTTCCTTCCTTCCTTCCGGTC
B2: binds (FLI1 F362A 259-399 [8]).

B3: 2sites (dsDNA)
DNA 1: GACCGGAAGGAAGTG
DNA 2: CACTTCCTTCCGGTC
B3: binds (FLI1 DBD 259-399 WT); binds (FLI1 F362A 259-399 [9]).

B4: 1site_weak (dsDNA)
DNA 1: TTGAAGGAAGAG
DNA 2: CTCTTCCTTCAA
Work on B4 yielded a Kd (FLI1 276-371 [10]) of 402 ± 172 nM, a Kd (FLI1 F362A 259-375 [11]) of 544 ± 288 nM and a Kd (FLI1 276-375 N329E/D333G [12]) of 126 ± 14 nM. The Kd (FLI1 F362A 259-371 [13]) was 1010 ± 421 nM, the Kd (FLI1 F362A 276-399 [14]) was 146 ± 37 nM and the Kd (FLI1 276-375 N329E [15]) was 275 ± 39 nM. The Kd (FLI1 F362A 276-375 [16]) was 137 ± 34 nM.

B5: 3sites (dsDNA)
DNA 1: GACCGGAAGGAAGGAAGTG
DNA 2: CACTTCCTTCCTTCCGGTC
B5: binds (FLI1 F362A 259-375 [17]).

B6: 2site_strong-weak (s-w) (dsDNA)
DNA 1: CAGACCGGAAGGAAGTG
DNA 2: CACTTCCTTCCGGTCTG
B6: binds (FLI1 276-371 [18]); binds (FLI1 F362A 276-375 [19]); binds (FLI1 F362A 259-399 [20]). B6: binds (FLI1 F362A 276-399 [21]).
